PMC12423496

Biological target: T1, sHdrR-trunc (Hyphomicrobium denitrificans XT) (UniProt D8JT17)
T1 sequence: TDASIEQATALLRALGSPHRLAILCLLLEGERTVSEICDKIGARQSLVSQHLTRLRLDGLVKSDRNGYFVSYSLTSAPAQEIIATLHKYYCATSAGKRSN
Test: EMSA
Details: 10 mM Tris-HCl, 50 mM KCl, 1 mM DTT, pH 8.0 (1x of 10x buffer), about 7% glycerol; 20 min RT then 30 min at 30 C with 17 nM DNA; 6% native PAGE, 0.25x TBE, 4 C

Sequence	binding
CGGCCCTCTGAGAAAAGACGCACACGTCGCGCCAAAAACATATGAACATTCGCATGATGGAATATAACAGCCCTGCCGATCGCACAAGGCTCGCTTTAAACGCGGACGCGTCTTCGCAGCGCACACGCATGCGCTGGACGTCCGATCATGTGAAAATTGGGCTGAAGACTCGCTCTA (double strand) [upstream of lipS1]	binds
GGGTCACCAAATTCTGCAGGTCTCAATGCGAATGCGAGGCTGCTCCAGCTAGACGAAAAACAAGGAACGTTGCAATAGATAATTCACATATGATAATTTTCATATGTGTTATAGGATGAACGTTATCGCAGCTTCCGGGAGAGATGGCGTGAT (double strand) [soxA-soxY intergenic region]	binds
TCGACAGCTTGCGGAAATCCGCAATCGAGATCGAAGCCATCGATCGTATTCGAATAGCACGTTCAGCTTCTGCGGAAGCGAACAACGCAACCGGCGCCAAGAGATAAATCTACATCGATCGTCGCGCCGGATGCGTTCACGTTGCCAAGGAATTCCTCACCGGCGGAGCCGTGGAATT (double strand)	no binding
TGCCACCTCCCCGATATGCGTGGCTTTTGTTGTTTTGCCACTTCAGTTCTTGTGTAACTTCCTCTTTAGAACCAGTCAATATTACATTCGCATGTTTGAATATTCCATTTTTCTATATGTTCATCGAATTGGAAAAGTTATTCAAATATATCGCGATCGATTGATCGGCGAAGTC (double strand) [upstream of dsrE3C]	binds
